Consider 20 sequences from the DeepSol protein solubility set.

This series in a line: soluble on expression in E. coli; label from the status in PepcDB or PDB records.
In the case of “MSQRPTSSHDSSAPHHIPVDDCLTYDTGYRPNLPGQRTWWVFCPVTGAFDNSYALLGAMIECVARGQATLAPAWDRTFAGGIWYDFDCGADVLDGRLLMDMAVDDMQRRIERYMSTNDGQMGCKPALGFR”, the “soluble on expression in E. coli” value is “not soluble”.

Consider “MSQSTSAGGSQAVAQNPGAKLGFSMRSASIASDSVPCESGLCEAPPGVLSGAGTVFCESTYKVKIDNETVWQVPTRLKFVKKVGSGAYGCVASFEDTSASASEQGTEDDPSRREQSGETRTSQTGSAEGDSGTNKKVAVKKIGDLFRDLIDAKRIYREIKILKELKHENIINLVEILDPLTPDFEDIYLVSDLMDTDLHRVIYSRQPLTPEHHQYFLYQLLLGLSFLHQADIIHRDLKPSNILVNLNCDIKICDFGLARGLNMNPAPPPNLLPPATHRAGPAAAQDVVCTYTPPDNLSGAGKWGDQKLAAAAGAGSIAATRLVRLAHQQGSSLIGAQHQVPAKTDDASDDMELTDYVVTRWYRPPEILISPFCYSKPVDLWSVGCIFAELLGRRALFAGKDHFDQLRRIVRVLGRPSTAEINKVANEGRGRHFNNPSKGTSNTKRKRSEAARRFIESLPNSDPYKLEDLFPDASKAALDLLSNLLTFDPAKRITVQEALRHEYFEGLHSVEDEPTVTTPVNWSFDNFVPTKR”, for which the “soluble on expression in E. coli” value is “soluble”.

As for “MSQTILFVCATGIATSTAVTEKVMEYCKEQGLNVNYSQTNVASLPGNTDGVALVVSTTKVPYELDVPVVNGLPIITGIGEEKVLAQIVSILKK”, the “soluble on expression in E. coli” value was “soluble”.

Take “MSRDGQNGTATFYFDEPQALVGEVRQDITGMYLLDDEGELATREVKAKFINGQPAGLEAVYLMRSPEEWDRFMRFMQRYAEANGLGFTEALEHHHHHH”: the “soluble on expression in E. coli” value is reported as “not soluble”.

With “MSRFIPIELHHASRLLNHGPTVLITSFDEQSQRRNIMAAAWSMPVEFEPPRVAIVVDKSTWTRELIEHNGKFGIVIPGVAATNWTWAVGSVSGRDEDKFNCYGIPVVRGPVFGLPLVEEKCLAWMECRLLPATSAQEEYDTLFGEVVSAAADARVFVEGRWQFDDDKLNTLHHLGAGTFVTSGKRVTAG”, the “soluble on expression in E. coli” value was “soluble”.

For “MSRGDKMLKFEIKARDGAGRIGKLEVNGKKIETPAIMPVVNPKQMVVEPKELEKMGFEIIITNSYIIYKDEELRRKALELGIHRMLDYNGIIEVDSGSFQLMKYGSIEVSNREIIEFQHRIGVDIGTFLDIPTPPDAPREQAVKELEITLSRAREAEEIKEIPMNATIQGSTYTDLRRYAARRLSSMNFEIHPIGGVVPLLESYRFRDVVDIVISSKMALRPDRPVHLFGAGHPIVFALAVAMGVDLFDSASYALYAKDDRYMTPEGTKRLDELDYFPCSCPVCSKYTPQELREMPKEERTRLLALHNLWVIKEEIKRVKQAIKEGELWRLVDERARSHPKLYSAYKRLLEHYTFLEEFEPITKKSALFKISNESLRWPVVRRAKERAKSINERFGELVEHPIFGRVSRYLSLTYPFAQSEAEDDFKIEKPTKEDAIKYVMAIAEYQFGEGASRAFDDAKVELSKTGMPRQVKVNGKRLATVRADDGLLTLGIEGAKRLHRVLPYPRMRVVVNKEAEPFARKGKDVFAKFVIFADPGIRPYDEVLVVNENDELLATGQALLSGREMIVFQYGRAVKVRKGVE”, the “soluble on expression in E. coli” value is “soluble”.

As to “MSRIMIQGTASSVGKSILVAALCRIFKQDGFSVCPYKSQNMSLNSYITLDGKEMGRAQVLQAYAAGLEPEVYMNPILLKPTTDKSCQVIVKGEVYGVSSAKNYYNMKKEFAPMLKEDFEELEDKFDIVVIEGAGSPAEINLRENDIVNMGLAELVDAPVVLVGDIDKGGVFASLFGTVMLLEENERKRIKGTIINKFRGDVEILKPGLSMLEERINIPCFGVVPYFN”, the “soluble on expression in E. coli” value was “not soluble”.

With “MSRISSMAYKWKQPPPPINDDSRHRSQSNSRLFDRIYGQMHRGNKAFEHTTSYDESISGFMRRRFAGNGERALPLRYGTNPHQKDDAELYIVEDEMPIKVLNGSPGYINILDGLNGWQLVKELSDATKMPAAASFKHVSPAGAAVGLPLNETEAACCMVSDLPIDTKKPSLAAAYARARGADRMSSFGDFIALSEKCDELTAKIINREVSDGVVAPDFDPAALSLLAKKKNGNYCVLKINPNYLPSETEERTVFGLRLRQKRNNAVINAETFNNVVGSANELNKQAIDDLIVATIALKYAQSNSVCFAHRGQVIGMGAGQQSRIHCTRLAGDKAMNWWLRQHPTVLSLPWKNAIKRSEKSNAIDVLCSGVLGSEVCNFKFNRPLSYFSLVTNL”, the “soluble on expression in E. coli” value is recorded as “not soluble”.

Regarding “MSRPESVLQLARKFGEISAAQENDIHKSRLSLKLGGKENLTKPTLILSKSGPPTPIRHVAPTITHTLPNRPNIGGIASLKSEPKMSRPNMFKQMEKVESNTTTTAPPRQLNPNSIKDALLRWIQNRVAGYPNVNVTNFSSSWADGMAFCALIHRFAPNSFDFSKLDPNNRRYNFDLAFKVAEDNGIFPLLEVDDMIMMGDRPDWKCVFTYVQSFYKQFRDHP”, the “soluble on expression in E. coli” value is listed as “not soluble”.

“MSRPPSRPRMMCARVLLLLSVTGLVLACETGPSSGDYEQAVMQDRVQRDMQMREKESVLPPGRREAFRGLNFYEVDPAYRYTVPLRRFETPDTVMIPESTGDLRPQQRIGEVTVPLPEGPEELVVFRGEGDTPRGRLWIPFADSTNRHATYKGGRYVDLTSTDSDSVVVDFNRAYNPTCAYNPDFACPLPPPENRIAVPVAAGEKRPTFGG”: the “soluble on expression in E. coli” value was “soluble”.

Turning to “MSRQNPVRSTRGNSLRAREAQQAQDAPLFQESSSNVFVVEKVLNKRLTRGGSEYYIKWQGFPESECSWEPIENLQCDRMIQEYEKEAAKRTTRKRRYSPQPSTSSSAELQPSTSDEWAGKTLKTIIGITKAPGELHFLCKFSDDSVHLIPLREANVRFPSQVIKFYETRLVLQGVSPTIPGGMS”, the “soluble on expression in E. coli” value is “not soluble”.

With “MSRRRQFDDEDEVQMKRRRGAPLIEDVEKKLQGVIGKVGENTGSSIECNLDKLTAFLHDDLEKYRASIIDIIAGCAIYLPNRVTVYTTLVGLLNSKNFNFGGDVVEKLISEQQDLLSKQKYQEAQNLAIFLCDLGNSGVLTAQSIGEYLESFIAAAFEENMPQVRNDYYIQTVLRCLPWIGKELTEKAPEQMENIGEAIGKYLELRNKNHVALLQVWREGSTDQKQEDYLESLSAQIEALRNADWVENHIPRHYSGFETTLQDALQHNLPSFQSPEHTSDMIYPYPLVVFRLFQDADCSAFSSKPLPGDSSIDRFLFEGEIAWIIEKNQFNRKACARELLAFAEENPSVPIGFLIFETIFGQMLRLPHAPYPAIFHCSLVLELLKLKPDDYPQILVQTVECIYRRADSMQPVCIDRMVDWFSFHLSNFQYRYTWTDWKDCLNKDAFSGSQIFVREVIEKCRRFGSYEKIIAALPQDFVKIHPCSPEVRYLIDEEDTALVQRAETFTQMFQERQPAEAFLNELKSNDENDELPYNINEFGLFVMVMLKMASKTYSHNFSALFRYQTTLKTVCDASELYQEKLLETLYSCWKTNQQMLMILTDKLLKMQVIDCSAVVGWLFDEKMWQEHDRQWLFEVLNQALEKLTRQINVVEKDIKELTEKTENKIKEEDDEESDIKMDEDETKEEKFKQDLEDLENNKEKLERMVTFQKGLFNDFLIAFIEEIKNAATSNTSEMDGSGDTPGTQTPKFMWLRGRFCHVLLAHAETLLKHSSNIADEVFSEGTDPSIIECFNQFQSLRL”, the “soluble on expression in E. coli” value was “not soluble”.

For “MSSEIAYSNTNTNTENENRNTGAGVDVNTNANANANATANATANATANATAELNLPTVDEQRQYKVQLLLHINSILLARVIQMNNSLQNNLQNNINNSNNNNIIRIQQLISQFLKRVHANLQCISQINQGVPSAKPLILTPPQLANQQQPPQDILSKLYLLLARVFEIW”, the “soluble on expression in E. coli” value is given as “not soluble”.

Turning to “MSSFTHFNEQGRAKMVDITHKEDTVRVAVAQTSVTVSREIYEKMTSNAIEKGDVLAVAQVAGVMAAKKTADLIPMCHPLMLKGVDIAFAWENDGEAHKLVITATVKTKGSTGVEMEALTAASVCALTVYDMCKALDKGMVIGPTYLVEKTGGKSGHYRRKTD”, the “soluble on expression in E. coli” value is on record as “soluble”.

For “MSSGVAAPQPSSCVPSRVSVLSMDFEDIYRFFQDPPPHYLSKELAVCYVLAVLRHEDSYGTELIQHLETHWPNYRLSDTVLYTALKFLEDEQIISGYWKKVEGRGRPRRMYQLAQANDDRSRDLAQLWERYLSSSAATDRQLIPVEAR”, the “soluble on expression in E. coli” value is given as “soluble”.

Take “MSSILTNNGAMVALQTLKSVNMNLGQTQNAISTGKNVATAKDNSAVWAISKVMESDVKGFKAIKDSLSLGESTVAVARNAAETVTDLLTQMKGKIVAAQEDNVDRNKINADVTALKDQISAVVGAAQFNGLNLVDGTAASASVLSSLDRDNAGNVTASSITVTGQNLSTGGYTAKAVFDATNTDGVSADGQDTFGFSLDANGGTDDNGQIEFEPQGTAAYAAGDSFTIRLGDTEVNYTVTAEDIASTSQADVIAVGMKAAIEASGANVTVDYNAANSGRLVITNDGTDSLQVSGQFSNANSGGLGALAAIDVSNSAGAAAALGSIETLIDTSIDAAAAFGSVQGRIETQKTFISNLTDSLKSGIGSMVDADMEEVSARLQALQVQQQLAVQSLSIANQAPQSILSLFR”: the “soluble on expression in E. coli” value is listed as “not soluble”.

In the case of “MSSIPQNIKGNNQPDIQKSFVAVHNQPGLYVGQQARFGGKVINVINGKTDTLLEISVLPLDSYAKPDIEANYQGRLLARQSGFLDPVNYRNHFVTILGTIQGEQPGFINKVPYNFLEVNMQGIQVWHLREVVNTTYNLWDYGYGAFWPEPGWGAPYYTNAVSQVTPELVKLEHHHHHH”, the “soluble on expression in E. coli” value is “soluble”.

With “MSSKIFCKSWGAEYIAADVVRFRLWATGQQKVMLRLAGKDQEMQANGDGWFTLDVAGVTPGTEYNFVLSDGMVVPDPASRAQKTDVNGPSYVVDPGSYTWRNTGWKGSRWEQAVVYEMHTGTFTPEGTFRAAIAKLPYLAELGVTVIEVMPVAQFGGERGWGYDGVLLYAPHSAYGTPDDFKAFIDAAHGYGLSVVLDIVLNHFGPEGNYLPLLAPAFFHKERMTPWGNGIAYDVDAVRRYIIEAPLYWLTEYHLDGLRFDAIDQIEDSSARHVLVEIAQRIREDITDRPIHLTTEDSRNIISLHPRDQDGNAPLFTAEWNDDFHNAVHVFATGETQAYYNDFADAPEKHLARALAEGFAYQGEISPQTGEPRGVKSTGQPPVAFVDFIQNHDQVGNRAQGDRLITLAGAERTKVLLATLLLSPHIPLLFMGEEYGESRPFLFFTDFHGDLARAVREGRAKEFADHAGENVPDPNAPETFQRSKLNWKQQHSEEGKAWLAFTRELLLLRQKHIVPLLSAARESSGTVLQTAPGFIAVSWRFPGGTLSLALNISATTVLLPDLPGKTLFAWPNESTGSLSQHSLIVRLAQGESAS”, the “soluble on expression in E. coli” value is reported as “not soluble”.

Consider “MSSLKGKRIGFGLTGSHCTYEAVFPQIEELVNEGAEVRPVVTFNVKSTNTRFGEGAEWVKKIEDLTGYEAIDSIVKAEPLGPKLPLDCMVIAPLTGNSMSKLANAMTDSPVLMAAKATIRNNRPVVLGISTNDALGLNGTNLMRLMSTKNIFFIPFGQDDPFKKPNSMVAKMDLLPQTIEKALMHQQLQPILVENYQGNDLEHHHHHH”, for which the “soluble on expression in E. coli” value was “not soluble”.

On to “MSSPKISIIIPVYMAESYLHRCVDSIITQTFTDWELLLVDDGSPDHSGELCEKYASAYKSRIKAFHKPNGGVASAREFGMQQARGEYSIHVDPDDWIDSNTLEELYQQAVKEQADMVICDFMMEYPNRQIHNCQKPQLLDSSSFMHQLLQQERHGSLCNKLIRTELYHKYQLHFPEKMICWEDLYICCSILLHGCKLAYVPHALYHYDFYTNDNSMVRHTDMRGLQAQIDFCRLMQAKISPEYLPELNELKGITLITAFRNQLLNEQAIRSLFPEINDWYVTRYGHDYEKSNYYGLTLVLRGYNFKTARRRMFVAKFLVQIKNKITRML”, for which the “soluble on expression in E. coli” value is “not soluble”.
